For one series, the system named is C=C(OP(=O)(O)O)C(=O)O. Description: purified protein.
Series [1] relates to O=C(O)C1=C[C@@H](OP(=O)(O)O)[C@@H](O)[C@H](O)C1. Briefly: purified protein.
The target of series [2] is 5-enolpyruvylshikimate-3-phosphate synthase (EPSPS) (Mycobacterium tuberculosis, UniProt P9WPY5). Briefly: biochemical.
The target of series [3] is T1, 5-enolpyruvylshikimate-3-phosphate synthase (EPSPS) (Escherichia coli, UniProt P0A6D3).
T1 sequence (P0A6D3 1-427): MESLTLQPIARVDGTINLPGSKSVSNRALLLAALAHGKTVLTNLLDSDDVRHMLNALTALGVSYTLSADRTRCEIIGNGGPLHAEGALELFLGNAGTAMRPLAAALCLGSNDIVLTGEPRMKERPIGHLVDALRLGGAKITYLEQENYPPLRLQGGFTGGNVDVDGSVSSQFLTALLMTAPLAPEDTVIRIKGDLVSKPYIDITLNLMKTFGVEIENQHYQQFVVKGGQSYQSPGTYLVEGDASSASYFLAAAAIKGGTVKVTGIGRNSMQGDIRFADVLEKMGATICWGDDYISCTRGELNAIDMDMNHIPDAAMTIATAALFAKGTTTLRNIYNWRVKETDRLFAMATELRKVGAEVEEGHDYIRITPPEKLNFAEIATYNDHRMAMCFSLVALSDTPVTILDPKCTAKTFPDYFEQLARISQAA
The format is biochemical.

Substrate in the series “steady-state kinetics”: C=C(OP(=O)(O)O)C(=O)O
Briefly: steady-state kinetics. The format is biochemical, Escherichia coli. The note with it: PEP/glyphosate-binding pocket.

5-enolpyruvylshikimate-3-phosphate synthase (EPSPS) (Mycobacterium tuberculosis, UniProt P9WPY5), sequence (P9WPY5 whole entry): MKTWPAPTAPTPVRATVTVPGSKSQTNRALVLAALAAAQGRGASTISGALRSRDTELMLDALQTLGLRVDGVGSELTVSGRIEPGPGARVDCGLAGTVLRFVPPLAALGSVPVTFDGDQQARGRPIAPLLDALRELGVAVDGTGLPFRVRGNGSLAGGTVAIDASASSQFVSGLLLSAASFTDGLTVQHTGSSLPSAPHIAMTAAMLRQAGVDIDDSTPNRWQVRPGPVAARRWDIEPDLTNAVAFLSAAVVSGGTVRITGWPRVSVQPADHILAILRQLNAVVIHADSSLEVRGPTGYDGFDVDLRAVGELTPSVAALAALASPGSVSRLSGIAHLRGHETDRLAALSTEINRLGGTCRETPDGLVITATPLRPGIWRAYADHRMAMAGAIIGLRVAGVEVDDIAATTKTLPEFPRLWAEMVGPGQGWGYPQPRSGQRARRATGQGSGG

In general, Km refers to the concentration of substrate that gives half-maximal velocity. Regarding “5-enolpyruvylshikimate-3-phosphate synthase (EPSPS) (Mycobacterium tuberculosis H37Rv)”, the Km in the series with C=C(OP(=O)(O)O)C(=O)O was 104 µM; in series [1], 16 µM.
What is called IC50 is the concentration needed to halve the response being measured. Low readings indicate greater potency, high ones weaker potency. With `O=C(O)CNCP(=O)(O)O` [glyphosate, N-phosphonomethyl-glycine], the IC50 was 260 µM in series [2] and 3 µM in series [3].

B1: 5-enolpyruvylshikimate-3-phosphate synthase (EPSPS) (Escherichia coli K-12) (protein)
chain: MESLTLQPIARVDGTINLPGSKSVSNRALLLAALAHGKTVLTNLLDSDDVRHMLNALTALGVSYTLSADRTRCEIIGNGGPLHAEGALELFLGNAGTAMRPLAAALCLGSNDIVLTGEPRMKERPIGHLVDALRLGGAKITYLEQENYPPLRLQGGFTGGNVDVDGSVSSQFLTALLMTAPLAPEDTVIRIKGDLVSKPYIDITLNLMKTFGVEIENQHYQQFVVKGGQSYQSPGTYLVEGDASSASYFLAAAAIKGGTVKVTGIGRNSMQGDIRFADVLEKMGATICWGDDYISCTRGELNAIDMDMNHIPDAAMTIATAALFAKGTTTLRNIYNWRVKETDRLFAMATELRKVGAEVEEGHDYIRITPPEKLNFAEIATYNDHRMAMCFSLVALSDTPVTILDPKCTAKTFPDYFEQLARISQAA
In the case of B1, in the series “steady-state kinetics”, the Km was found to be 52 µM.

The record behind these values is paper PMC3572760 (Advances and Applications in Bioinformatics and Chemistry : …, 2013).
